In US20240417458A1 (DISC MEDICINE, published 2024):
Several values for one entry are separate records, joined by “and”; a condition that tells them apart may be missing. Identical values can stand only once.

Columns and labels:
[1] = target: T1, soluble human RGMa (human, UniProt Q96B86 48-422, limits assumed); test: SPR (BIAcore);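 further: Anti-HJV antibodies tested for binding against soluble human RGMa by surface plasmon resonance on a BIAcore instrument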
T1 construct: Soluble antigen in BIAcore; also called huRGMa; repulsive guidance molecule A
T1 sequence (looked up): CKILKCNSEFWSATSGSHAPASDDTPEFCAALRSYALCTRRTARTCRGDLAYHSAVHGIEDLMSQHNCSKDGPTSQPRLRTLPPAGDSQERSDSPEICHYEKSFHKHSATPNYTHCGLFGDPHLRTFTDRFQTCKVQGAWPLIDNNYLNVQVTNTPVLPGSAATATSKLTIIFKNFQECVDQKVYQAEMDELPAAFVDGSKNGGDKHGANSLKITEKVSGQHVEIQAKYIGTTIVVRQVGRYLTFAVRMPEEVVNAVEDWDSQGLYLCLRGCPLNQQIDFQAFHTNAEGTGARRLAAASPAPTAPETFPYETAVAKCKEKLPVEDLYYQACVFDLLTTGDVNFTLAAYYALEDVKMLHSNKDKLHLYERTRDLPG
Method: (§1) Binding affinities of the anti-HJV antibodies to soluble human RGMa, Rat RGMa and human RGMc were measured by BIAcore analysis.

[2] = target: T2, membrane-bound human RGMc (human, UniProt Q6ZVN8 36-400); test: cell-based or functional assay
T2 sequence: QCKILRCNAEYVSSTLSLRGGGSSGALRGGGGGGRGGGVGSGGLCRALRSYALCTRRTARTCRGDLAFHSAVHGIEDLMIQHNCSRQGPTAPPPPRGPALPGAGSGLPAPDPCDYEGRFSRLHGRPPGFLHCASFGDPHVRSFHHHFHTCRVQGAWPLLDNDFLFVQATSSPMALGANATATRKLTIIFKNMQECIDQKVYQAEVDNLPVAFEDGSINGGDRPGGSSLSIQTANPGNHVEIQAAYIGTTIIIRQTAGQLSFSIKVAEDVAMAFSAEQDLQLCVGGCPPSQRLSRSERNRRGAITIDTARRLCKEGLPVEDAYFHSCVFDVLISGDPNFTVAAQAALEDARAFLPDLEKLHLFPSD

[3] = target: T2, membrane-bound human RGMc; test: cell-based or functional assay; remark: listed apart in the source
[4] = target: T3, FcRn; test: SPR (BIAcore) at pH 6.0
T3 construct: also called neonatal Fc receptor

[5] = target: T2, membrane-bound human RGMc; test: cell-based or functional assay; remark: listed apart in the source
[6] = target: T4, soluble rat RGMa (rat, UniProt D4A188 48-421); test: SPR (BIAcore), RGM antigen in solution
T4 construct: Soluble antigen in BIAcore
T4 sequence: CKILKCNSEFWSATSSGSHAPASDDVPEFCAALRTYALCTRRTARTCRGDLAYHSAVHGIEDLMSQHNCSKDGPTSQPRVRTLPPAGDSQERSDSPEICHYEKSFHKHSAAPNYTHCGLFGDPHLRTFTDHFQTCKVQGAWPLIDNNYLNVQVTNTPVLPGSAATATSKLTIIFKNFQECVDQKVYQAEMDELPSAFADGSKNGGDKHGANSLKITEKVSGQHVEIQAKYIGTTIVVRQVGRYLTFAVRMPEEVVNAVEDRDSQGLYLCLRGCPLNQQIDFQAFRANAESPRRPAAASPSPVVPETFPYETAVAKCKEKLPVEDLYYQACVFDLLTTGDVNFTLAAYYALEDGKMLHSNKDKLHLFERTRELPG

[7] = target: T5, Rat RGMc (rat, UniProt Q8N7M5 36-396, limits assumed); test: SPR (BIAcore), RGM antigen in solution
T5 sequence (looked up): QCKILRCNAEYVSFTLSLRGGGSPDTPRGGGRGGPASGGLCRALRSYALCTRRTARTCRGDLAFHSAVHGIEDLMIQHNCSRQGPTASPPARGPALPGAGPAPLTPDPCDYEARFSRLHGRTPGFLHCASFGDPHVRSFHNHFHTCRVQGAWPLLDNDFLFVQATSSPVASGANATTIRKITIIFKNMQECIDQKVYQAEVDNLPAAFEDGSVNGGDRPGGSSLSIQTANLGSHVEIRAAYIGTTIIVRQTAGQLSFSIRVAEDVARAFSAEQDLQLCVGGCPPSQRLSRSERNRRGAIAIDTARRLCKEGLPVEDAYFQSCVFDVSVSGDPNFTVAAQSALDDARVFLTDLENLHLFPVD

[8] = target: T1, soluble human RGMa; test: SPR; method not named in Example 2
[9] = target: T6, soluble human RGMc (human, UniProt Q6ZVN8 36-400); test: SPR; method not named in Example 2
T6 construct: also called huRGMc; soluble hRGMc
T6 sequence: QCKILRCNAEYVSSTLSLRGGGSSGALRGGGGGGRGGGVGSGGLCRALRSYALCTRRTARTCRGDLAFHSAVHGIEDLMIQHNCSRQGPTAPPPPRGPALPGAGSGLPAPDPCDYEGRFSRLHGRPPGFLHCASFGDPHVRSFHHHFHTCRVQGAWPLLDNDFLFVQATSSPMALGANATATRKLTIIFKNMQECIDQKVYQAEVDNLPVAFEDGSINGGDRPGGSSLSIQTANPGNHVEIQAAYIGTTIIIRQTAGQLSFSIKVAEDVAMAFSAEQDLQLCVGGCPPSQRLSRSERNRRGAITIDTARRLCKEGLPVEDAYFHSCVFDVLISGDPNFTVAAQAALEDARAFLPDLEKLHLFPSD

[10] = target: T6, soluble human RGMc; test: SPR (BIAcore), soluble hRGMc; summary table
[11] = target: T6, soluble human RGMc; test: SPR (BIAcore);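 further: Anti-HJV antibodies, binding affinity to soluble human RGMc measured by BIAcore surface plasmon resonance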
Method: as §1

[12] = target: T7, membrane-bound human RGMa (human, UniProt Q96B86 169-424); test: cell-based or functional assay
T7 sequence (looked up): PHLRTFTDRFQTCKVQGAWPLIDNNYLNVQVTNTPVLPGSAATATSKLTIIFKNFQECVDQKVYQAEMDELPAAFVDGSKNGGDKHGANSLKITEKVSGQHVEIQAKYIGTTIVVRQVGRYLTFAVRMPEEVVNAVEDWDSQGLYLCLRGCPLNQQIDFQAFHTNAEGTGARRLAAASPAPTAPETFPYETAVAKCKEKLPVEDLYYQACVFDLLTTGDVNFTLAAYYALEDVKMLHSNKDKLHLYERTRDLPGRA

T3 sequence (P55899 24-297, chain 1 of 2): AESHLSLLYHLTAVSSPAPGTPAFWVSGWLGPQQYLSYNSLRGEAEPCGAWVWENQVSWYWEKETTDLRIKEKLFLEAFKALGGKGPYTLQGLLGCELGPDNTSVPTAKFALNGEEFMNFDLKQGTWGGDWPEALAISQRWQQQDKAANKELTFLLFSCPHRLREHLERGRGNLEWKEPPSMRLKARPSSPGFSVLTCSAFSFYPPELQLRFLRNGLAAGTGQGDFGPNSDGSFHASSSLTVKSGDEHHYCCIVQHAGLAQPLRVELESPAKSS
T3 sequence (P61769 21-119, chain 2 of 2, further chain): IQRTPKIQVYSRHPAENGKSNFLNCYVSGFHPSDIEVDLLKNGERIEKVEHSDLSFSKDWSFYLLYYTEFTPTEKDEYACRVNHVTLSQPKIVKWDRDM

B1: hHA-008 (antibody, human IgG1, kappa, L234A L235A)
heavy: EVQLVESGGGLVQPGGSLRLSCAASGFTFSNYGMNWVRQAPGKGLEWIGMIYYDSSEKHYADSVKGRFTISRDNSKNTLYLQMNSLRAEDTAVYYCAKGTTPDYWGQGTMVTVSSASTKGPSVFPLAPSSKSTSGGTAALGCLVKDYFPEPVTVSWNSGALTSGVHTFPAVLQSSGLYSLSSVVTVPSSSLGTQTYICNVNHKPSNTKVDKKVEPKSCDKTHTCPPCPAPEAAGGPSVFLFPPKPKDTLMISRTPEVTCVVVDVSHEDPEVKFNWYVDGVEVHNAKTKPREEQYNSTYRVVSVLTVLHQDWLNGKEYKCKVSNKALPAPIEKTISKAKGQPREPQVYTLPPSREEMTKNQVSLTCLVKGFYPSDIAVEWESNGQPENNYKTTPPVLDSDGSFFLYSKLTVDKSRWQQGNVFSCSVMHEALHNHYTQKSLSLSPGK
light: DVVLTQSPLSLPVTLGQPASISCRSSQSLEESDGYTFLHWFQQRPGQSPRLLIYEVSTRFSGVPDRFSGSGSGTDFTLKISRVEAEDVGVYYCFQATHDPLTFGQGTKLEIKRTVAAPSVFIFPPSDEQLKSGTASVVCLLNNFYPREAKVQWKVDNALQSGNSQESVTEQDSKDSTYSLSSTLTLSKADYEKHKVYACEVTHQGLSSPVTKSFNRGEC
notes: hIgG1 L234A, L235A, kappa; also called hHA-008 (hIgG1mut(LALA)/k)
[1]
  Kd: 0.031 nM
  koff: 2.7e-05 s⁻¹
  kon: 870000 M⁻¹ s⁻¹
[2]
  Potency on membrane hRGMc (RGMc/BMP reporter assay), IC50: 0.37 nM
[3]
  IC50 (read off the curve): ~0.4 nM
[4]
  Kd: 2950 nM and 2960 nM
[5]
  IC50 (nM), BMP reporter assay for RGMc (BRE-Luc, HEK293): 0.377 nM
[6]
  Kd: 0.12 nM
  koff: 3.6e-05 s⁻¹
  kon: 310000 M⁻¹ s⁻¹
[7]
  Kd: 0.23 nM
  koff: 0.00032 s⁻¹
  kon: 1.4e+06 M⁻¹ s⁻¹
[8]
  Kd: 0.078 nM
  koff: 4.2e-05 s⁻¹
  kon: 540000 M⁻¹ s⁻¹
[9]
  Kd: 0.11 nM
  koff: 0.00032 s⁻¹
  kon: 3e+06 M⁻¹ s⁻¹
[10]
  Kd: 0.105 nM
  koff: 0.00039 s⁻¹
  kon: 3.95e+06 M⁻¹ s⁻¹
[11]
  Kd: 0.105 nM
  koff: 0.00039 s⁻¹
  kon: 3.95e+06 M⁻¹ s⁻¹
[12]
  IC50 (nM), BMP reporter assay for RGMa: ~56.5 nM
